According to publication PMC5603727:

Experiments:
[1] = biological target: T1, Roquin-1 ROQ domain (SPR, EMSA wild type) (UniProt Q4VGL6 171-326); assay: SPR; 2 mM Mg2+, 10 C; SPR: 10 mM HEPES pH 7.4, 150 mM NaCl, 2 mM MgCl2, 0.005% Tween 20, 10 C, ROQ immobilized; EMSA: 20 mM HEPES pH 7.4, 50 mM NaCl, 1 mM MgCl2, 1 mM DTT, 1 ug/ul BS
T1 sequence: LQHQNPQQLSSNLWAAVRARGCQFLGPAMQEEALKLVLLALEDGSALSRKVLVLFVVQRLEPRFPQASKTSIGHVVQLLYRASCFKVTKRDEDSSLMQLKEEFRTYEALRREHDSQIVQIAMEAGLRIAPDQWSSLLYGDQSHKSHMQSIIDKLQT

Roquin-1 ROQ (147-326) = biological target: T2, Roquin-1 ROQ (147-326) (UniProt Q4VGL6 147-326); assay: EMSA; SPR: 10 mM HEPES pH 7.4, 150 mM NaCl, 2 mM MgCl2, 0.005% Tween 20, 10 C, ROQ immobilized; EMSA: 20 mM HEPES pH 7.4, 50 mM NaCl, 1 mM MgCl2, 1 mM DTT, 1 ug/ul BS
T2 sequence: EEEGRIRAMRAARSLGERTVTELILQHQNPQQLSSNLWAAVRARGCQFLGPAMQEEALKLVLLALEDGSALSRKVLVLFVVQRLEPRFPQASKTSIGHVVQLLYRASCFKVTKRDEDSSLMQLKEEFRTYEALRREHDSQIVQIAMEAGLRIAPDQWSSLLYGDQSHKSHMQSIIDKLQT

Roquin-1 N-term = biological target: T3, Roquin-1 N-term (UniProt Q4VGL6 2-440); assay: as above
T3 sequence: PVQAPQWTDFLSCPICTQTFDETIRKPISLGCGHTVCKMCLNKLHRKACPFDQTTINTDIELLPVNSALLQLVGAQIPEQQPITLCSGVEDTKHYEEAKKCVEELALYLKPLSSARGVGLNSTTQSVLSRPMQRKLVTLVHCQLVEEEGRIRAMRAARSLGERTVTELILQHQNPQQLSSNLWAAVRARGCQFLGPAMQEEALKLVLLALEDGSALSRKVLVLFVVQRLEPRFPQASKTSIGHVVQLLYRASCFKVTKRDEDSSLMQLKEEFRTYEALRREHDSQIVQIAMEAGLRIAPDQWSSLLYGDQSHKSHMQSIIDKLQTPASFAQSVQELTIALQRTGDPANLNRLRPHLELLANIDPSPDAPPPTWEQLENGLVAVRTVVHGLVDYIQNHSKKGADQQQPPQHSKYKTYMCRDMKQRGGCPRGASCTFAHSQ

Roquin-1 ROQ (171-326) = biological target: T4, Roquin-1 ROQ (171-326) (UniProt Q4VGL6 171-326); assay: NMR; 298 K; SPR: 10 mM HEPES pH 7.4, 150 mM NaCl, 2 mM MgCl2, 0.005% Tween 20, 10 C, ROQ immobilized; EMSA: 20 mM HEPES pH 7.4, 50 mM NaCl, 1 mM MgCl2, 1 mM DTT, 1 ug/ul BS
T4 sequence: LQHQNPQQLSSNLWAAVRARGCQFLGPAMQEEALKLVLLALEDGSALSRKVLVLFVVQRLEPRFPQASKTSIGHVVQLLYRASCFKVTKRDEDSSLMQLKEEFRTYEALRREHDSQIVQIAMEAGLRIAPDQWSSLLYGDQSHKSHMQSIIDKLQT

UCCACACCGUUCUAGGUGCUGG (structured_RNA) [Ox40 ADE-like SL]
Kd [1]: 81 ± 22 nM

ACAUGUUUUCUGUGAAAACGGAG (structured_RNA) [Tnf CDE SL]
Kd [1]: 42 ± 19 nM

CUAUGUAUGCUAUGCAUACUACC (structured_RNA) [Ox40 CDE-like SL]
binding result (Roquin-1 ROQ (147-326)): binds | binding result (Roquin-1 N-term): binds

UCCACACAGUUCUAUGUGCUGG (structured_RNA) [Ox40 ADE-like Mut4 (C8A,G15U)]
Kd [1]: 234 ± 63 nM

UCCACACCGUACGAGGUGCUGG (structured_RNA) [Ox40 ADE-like Mut3 (U11A,U13G)]
binding result [1]: no binding

UGACUGCGUUUUAGGAGUUA (structured_RNA) [SELEX-derived ADE SL]
binding result (Roquin-1 ROQ (171-326)): binds

UCCACACCCUUCUAGGUGCUGG (structured_RNA) [Ox40 ADE-like Mut2 (G9C)]
binding result [1]: no binding
